According to patent publication US20230295345A1 (published 2023):

T1: cynomolgus monkey TMPRSS6 expressed on HEK293T cells (CynoTMPRSS6-(His)6) (cynomolgus monkey, UniProt Q8IU80 10-811 (human entry))
T1 chain: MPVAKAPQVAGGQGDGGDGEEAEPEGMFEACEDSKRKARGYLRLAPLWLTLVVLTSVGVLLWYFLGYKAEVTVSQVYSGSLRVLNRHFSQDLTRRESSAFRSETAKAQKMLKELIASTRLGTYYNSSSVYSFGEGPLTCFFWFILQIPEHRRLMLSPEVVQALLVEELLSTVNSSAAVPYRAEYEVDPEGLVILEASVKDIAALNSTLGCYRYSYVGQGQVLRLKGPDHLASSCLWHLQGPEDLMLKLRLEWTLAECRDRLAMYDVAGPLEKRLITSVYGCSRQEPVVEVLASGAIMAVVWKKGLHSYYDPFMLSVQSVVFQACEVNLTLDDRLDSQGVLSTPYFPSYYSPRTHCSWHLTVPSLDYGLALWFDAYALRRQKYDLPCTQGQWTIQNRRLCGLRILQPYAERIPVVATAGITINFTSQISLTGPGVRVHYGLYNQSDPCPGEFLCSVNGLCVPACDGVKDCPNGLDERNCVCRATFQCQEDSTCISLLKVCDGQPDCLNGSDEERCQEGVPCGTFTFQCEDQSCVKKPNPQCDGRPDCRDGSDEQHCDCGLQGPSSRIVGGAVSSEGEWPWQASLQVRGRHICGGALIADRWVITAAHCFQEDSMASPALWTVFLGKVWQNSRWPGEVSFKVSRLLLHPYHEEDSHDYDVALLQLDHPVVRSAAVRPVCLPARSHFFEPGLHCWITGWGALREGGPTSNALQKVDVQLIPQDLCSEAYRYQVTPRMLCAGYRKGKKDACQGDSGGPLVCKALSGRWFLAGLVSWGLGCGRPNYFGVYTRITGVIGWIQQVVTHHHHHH

T2: mouse TMPRSS6 expressed on HEK293T cells (MoTMPRSS6-(His)6) (mouse, UniProt Q9DBI0 1-811)
T2 construct: stably expressed in HEK293T cells; also called murine TMPRSS6
T2 sequence: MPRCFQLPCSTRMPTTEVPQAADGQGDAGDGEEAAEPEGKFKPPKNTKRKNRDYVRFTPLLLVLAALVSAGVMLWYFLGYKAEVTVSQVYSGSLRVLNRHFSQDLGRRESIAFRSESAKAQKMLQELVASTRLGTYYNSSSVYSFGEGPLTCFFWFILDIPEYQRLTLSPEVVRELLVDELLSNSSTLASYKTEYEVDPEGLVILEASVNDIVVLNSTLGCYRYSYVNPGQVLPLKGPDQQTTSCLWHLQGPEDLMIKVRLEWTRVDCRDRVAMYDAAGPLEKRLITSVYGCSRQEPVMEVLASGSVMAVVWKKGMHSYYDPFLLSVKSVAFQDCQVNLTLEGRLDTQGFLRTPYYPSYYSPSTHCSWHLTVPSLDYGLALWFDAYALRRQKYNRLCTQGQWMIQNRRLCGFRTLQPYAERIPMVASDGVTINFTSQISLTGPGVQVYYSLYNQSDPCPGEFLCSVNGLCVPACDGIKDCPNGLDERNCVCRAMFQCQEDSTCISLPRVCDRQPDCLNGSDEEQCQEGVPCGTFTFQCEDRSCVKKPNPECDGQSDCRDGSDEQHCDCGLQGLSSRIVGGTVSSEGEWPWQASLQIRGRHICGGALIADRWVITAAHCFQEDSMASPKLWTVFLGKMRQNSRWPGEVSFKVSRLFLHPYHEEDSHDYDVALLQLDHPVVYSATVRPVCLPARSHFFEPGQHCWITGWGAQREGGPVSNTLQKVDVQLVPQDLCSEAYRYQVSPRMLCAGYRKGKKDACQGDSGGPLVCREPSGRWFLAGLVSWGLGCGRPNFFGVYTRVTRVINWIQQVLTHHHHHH


Experiments:
[1] = target: T1, cynomolgus monkey TMPRSS6 expressed on …; assay: cell surface ELISA on fixed HEK293T cells expressing cynomolgus monkey TMPRSS6
Procedure: HEK293T cells stably expressing mouse TMPRSS6 (generated by LakePharma Inc as described above, FIGS. 4J, 4L, 4N, 4P, 4R, 4T) or cynomolgus monkey (generated in house as described above, FIGS. 4K, 4M, 4O, 4Q, 4S, 4U) were fixed with methanol (100%), and washed with dPBS (Dulbecco’s phosphate-buffered saline, Corning Cellgro) before incubation with various concentrations of anti-TMPRSS6 antibodies and their humanized variants diluted in BSA medium (DMEM + 1% Pen/Strep + 10 mM HEPES + 1 mg/ml BSA (Sigma-Aldrich)). Purified mouse IgG (FIGS. 4J-4O) or Human IgG1 (FIGS. 4P-4U) was used as a control. After incubation, cells were washed with BSA medium and then incubated with goat anti-mouse (Invitrogen, FIGS. 4J-4O) or anti-human (Millipore, FIGS. 4P-4U) IgG conjugated with HRP as a 2° antibody. Finally, cells were washed with dPBS to remove unbound antibody and color developed with ELISA liquid substrate (Sigma-Aldrich), followed by stopping the reaction with addition of the same volume of ELISA liquid substrate of 1 M H₂SO₄. Bound antibody was measured by absorbance at OD₄₅₀ₙₘ.

[2] = target: T1, cynomolgus monkey TMPRSS6 expressed on …; assay: FACS on HEK293T cells transiently expressing cynomolgus monkey TMPRSS6
Procedure: (§1) Selected anti-TMPRSS6 antibodies were tested to determine whether any are capable of binding to TMPRSS6 from mouse and/or cynomolgus monkey. HEK293T cells stably expressing human TMPRSS6 (HuTMPRSS6-(His)₆) (generated by LakePharma Inc as described above), HEK293T cells stably expressing mouse TMPRSS6 (MoTMPRSS6-(His)₆) (SEQ ID NO: 98) (generated by LakePharma Inc as described above) and HEK293T cells transiently expressing cynomolgus monkey TMPRSS6 (CynoTMPRSS6-(His)₆) (SEQ ID NO: 99) (generated in house) were collected. HEK293T cells stably expressing human TMPRSS6 were used as a positive control and HEK293T cells were used as a negative control (as described above). Cells were blocked with dPBS + 3% BSA before incubation with anti-TMPRSS6 antibodies diluted in dPBS + 3% BSA. After incubation, cells were washed with dPBS and followed by another incubation with goat anti-mouse IgG conjugated with AlexaFluor-488 as a 2° antibody (Invitrogen). At last, cells were washed with dPBS to remove unbound antibody, re-suspended with dPBS + 1 mM EDTA, and then subjected to FACS analysis using a NOVOCYTE® Flow Cytometer (ACEA Biosciences, Inc., San Diego CA). Bound antibody was determined by excitation at 488 nm and measurement of emission (FITC-A) at 530 nm. Results for these assays are shown in histogram plots in FIGS. 4A-4I.

[3] = target: T2, mouse TMPRSS6 expressed on HEK293T …; assay: FACS on HEK293T cells stably expressing mouse TMPRSS6
Procedure: as §1

Row | binding result [1] | binding result [2] | binding result [3] | Binder
1 | binds |  |  | hzMWTx-003Var anti-TMPRSS6 antibody (antibody, human IgG1, kappa, L234A L235A, V domains shown, Humanized variant of MWTx-003, human IgG1/kappa) VH: QVQLVQSGAEVKKPGASVKVSCKASGFNIEDYYMHWVRQAPGQRLEWMGRIDPEDAETTYSPKFQGRVTIIPDTSANTAYMELSSLRSEDTAVYYCARSIYLDPMDYWGQGTLVTVSS VL: DIQMTQSPKSLSASVGDRVTITCRASQDVTTALAWYQQKPGQSPKLLIYWATTRHSGVPSRFSGSGSGTDFTLTISSLQPEDFATYYCQQHYSTPYTFGQGTKLEIKR
2 |  | binds |  | MWTx-003 anti-TMPRSS6 antibody (antibody, mouse IgG2b, kappa, V domains shown, Mouse monoclonal antibody from a hybridoma (ATCC PTA-126761); also called r4K12B (recombinantly expressed version, same HC and LC)) VH: EVQLQQSGAELVKPGASVKLSCTASGFNIEDYYIHWVKERTEQGLEWIGRIDPEDGETTYAPQFQGKATIIPDTSSNTAYMQLSSLTSEDAAVYYCARSIYLDPMDYWGQGTSVTVSS VL: DIVMTQSHKFMSTSVGDRVSITCKASQDVTTAVAWYQQKPGQSPKILIYWATTRHTGVPDRFTGSISGTTYILTISSVQAEDLALYYCQQHYSTPYTFGGGTKLEIKR
3 | binds |  |  | MWTx-001 anti-TMPRSS6 antibody (antibody, mouse IgG2a, kappa, V domains shown, Mouse monoclonal antibody from a hybridoma (ATCC PTA-126759)) VH: QVQLQQPGAELAKPGASVKMSCKASGYTFTSYWITWVKQRPGQDLEWIGNIYPGSGSTYYNEKFKSKATLTVDTSSRTAYMQLSSLTSADSAVYYCAPYDSDYAMDYWGQGTSVTVSS VL: DIKMTQSPSSMYASLGERVTITCKASQDINNYLSWFQQKPGKSPKTLIYRANRLVDGVPSRVSGSGSGQDYSLTISSLEYEDVGIYFCLQYDEFPLTFGAGTKLELKR
4 | binds |  |  | hzMWTx-001Var anti-TMPRSS6 antibody (antibody, human IgG1, kappa, N297A, V domains shown, Humanized variant of MWTx-001, human IgG1/kappa) VH: EVQLVQSGAEVKKPGASVKVSCKASGYTFTSYWITWVRQAPGQRLEWIGNIYPGSGSTYYNEKFKSKATITRDTSSRTAYMELSSLRSEDTAVYYCAPYDADYAMDYWGQGTLVTVSS VL: DIQMTQSPSSLSASVGDRVTITCKASQDISNYLSWFQQKPGKAPKLLIYRANRLVEGVPSRFSGSGSGTDFTLTISSLQPEDFATYFCLQYDEFPLTFGGGTKVEIKR
5 | binds |  | no binding | MWTx-002 anti-TMPRSS6 antibody (antibody, mouse IgG2b, kappa, V domains shown, Mouse monoclonal antibody from a hybridoma (ATCC PTA-126760)) VH: EVQLQQSGAELVKPGASVKLSCTASGFNIKDYYIHWVKERTEQGLEWFGRIDPEDGESEYAPKFQGKATLTADTSSNTAYLQLSSLTSEDTAVYYCTRGDSMMVTYFDYWGQGTTLTVSS VL: DIVMTQSHKFMSTSVGDRVSITCKASQDVSTAVAWYQQKPGQSPKLLIYWAFTRHTGVPDRFTSTGSGTDYALTISSVQAEDLALYYCQQHYRSPWTFGGGTKLEIKR
6 | binds |  |  | hzMWTx-002Var anti-TMPRSS6 antibody (antibody, human IgG1, kappa, N297A, V domains shown, Humanized variant of MWTx-002, human IgG1/kappa) VH: EVQLVQSGAEVKKPGASVKVSCKASGFNIKDYYIHWVRQATGQGLEWMGRIDPEDAESEYAPKFQGRVTITADTSTDTAYMELSSLRSEDTAVYYCTRGDSMMVTYFDYWGQGTLVTVSS VL: DIQMTQSPSSLSASVGDRVTITCKASQDVSTAVAWYQQKPGKAPKLLIYWAFTRHTGVPSRFSGSGSGTDYALTISSLQPEDFATYYCQQHYRSPWTFGGGTKVEIKR
